Starred links: 1 amine or outer side, 2 acyl side, 3 side chain; linkers in the order of their positions; H or OH if unused. Non-standard residues stand in square brackets, D forms with d. Ala(piperidin-4-yl) = O=C([C@H](CC1CCN([*:3])CC1)N[*:1])[*:2]; Arg(Me) = CNC(=N)NCCC[C@H](N)C(=O)O; hArg = N=C(N)NCCCC[C@H](N)C(=O)O; 4Pal = N[C@@H](Cc1ccncc1)C(=O)O; Cha = N[C@@H](CC1CCCCC1)C(=O)O; dIva = CC[C@@](C)(N)C(=O)O; Iva = CC[C@](C)(N)C(=O)O; Nle = CCCC[C@H](N)C(=O)O; Aib = CC(C)(N)C(=O)O
Experiments:
human Y2 receptor [1] = biological target: T1, human Y2 receptor (Homo sapiens, UniProt P49146); test: Receptor Binding Assay (RBA) for Human Y2, [125I]-PYY displacement on hY2R/CHO membrane fraction; details: IC50 of test compound/IC50 of PYY(3-36) (PYY(3-36) taken as 1)
T1 construct: expressed in transfected cells; membrane fraction
T1 sequence (P49146 1-381): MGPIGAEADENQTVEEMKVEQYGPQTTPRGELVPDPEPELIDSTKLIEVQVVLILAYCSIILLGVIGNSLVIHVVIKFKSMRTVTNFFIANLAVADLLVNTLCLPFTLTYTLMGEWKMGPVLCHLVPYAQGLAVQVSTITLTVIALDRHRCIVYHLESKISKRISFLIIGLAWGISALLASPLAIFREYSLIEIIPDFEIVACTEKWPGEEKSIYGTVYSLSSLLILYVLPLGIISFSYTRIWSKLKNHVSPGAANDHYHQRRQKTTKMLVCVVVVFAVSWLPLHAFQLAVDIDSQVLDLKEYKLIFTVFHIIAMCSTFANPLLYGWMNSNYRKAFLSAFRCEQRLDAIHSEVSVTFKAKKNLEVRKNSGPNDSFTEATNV
In short: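 hY2R stably expressed in CHO/dhfr− cells; membrane fraction prepared from cells disrupted in 10 mM NaHCO3, 5 mM EDTA buffer with protease inhibitors. Binding read as displacement of [125I]-PYY.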

male C57EL/6J mice = test: 3-Days Continuous Subcutaneous Administration Test-1 (food intake suppressing activity); assay type: in vivo, mouse; details: 0.03 mg/kg/day, subcutaneous Alzet pump, food consumption over 3 days; relative to food intake suppression rate for PYY(3-36) (1 mg/kg/day) taken as 100%
In short: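 Male […] mice, 12-13 weeks, received compound at 0.03 mg/kg/day by subcutaneous osmotic pump (50% DMSO vehicle), housed singly with free food access. Food consumed over 3 days measured; suppression expressed relative to PYY(3-36) (1 mg/kg/day) set as 100%.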

human Y2 receptor [2] = biological target: T1, human Y2 receptor; test: Human Y2 Receptor G Protein Binding Assay (GBA), [35S]GTPγS; assay type: biochemical; details: EC50 of test compound/EC50 of PYY(3-36) (PYY3-36 taken as 1), hY2R/CHO membrane fraction
In short: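 Agonism measured as [35S]GTPγS binding, read by GF/C filtration and scintillation counting after 120 min at room temperature, using human Y2 membranes at 1 μg protein/mL in pH 7.4 Tris/MgCl2/NaCl/GDP buffer. Compound serially diluted 100 μM–1 nM; EC50 normalized to PYY(3-36) (ratio = compound/PYY).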

| Substance | RBA IC50 Ratio (human Y2 receptor [1]) | GBA EC50 Ratio (human Y2 receptor [2]) | food intake suppression rate (%) (male C57EL/6J mice) |
| --- | --- | --- | --- |
| Ac-[D-Pro24, Arg(Me)25,30, Pya(4)26, Cha27,36, Aib28,31]-PYY(23-36) (Ac-S[dP][Arg(Me)][4Pal][Cha][Aib]N[Arg(Me)][Aib]TRQR[Cha]-NH2; SMILES CNC(=N)NCCC[C@H](NC(=O)[C@H](CC(N)=O)NC(=O)C(C)(C)NC(=O)[C@H](CC1CCCCC1)NC(=O)[C@H](Cc1ccncc1)NC(=O)[C@H](CCCNC(=N)NC)NC(=O)[C@H]1CCCN1C(=O)[C@H](CO)NC(C)=O)C(=O)NC(C)(C)C(=O)N[C@H](C(=O)N[C@@H](CCCNC(=N)N)C(=O)N[C@@H](CCC(N)=O)C(=O)N[C@@H](CCCNC(=N)N)C(=O)N[C@@H](CC1CCCCC1)C(N)=O)[C@@H](C)O) [compound No. 315] | 1.5 | 1.5 | 45 |
| Ac-[D-Pro24, Arg(Me)25, Pya(4)26, Cha27,36, Aib28,31, Lys30]-PYY(23-36) [compound No. 319] | 1.1 | 1.3 | 40 |
| Ac-[D-Pro24, Iva25, Pya(4)26, Cha27,36, Aib28,31, Har30]-PYY(23-36) (Ac-S[dP][Iva][4Pal][Cha][Aib]N[hArg][Aib]TRQR[Cha]-NH2; SMILES CC[C@](C)(NC(=O)[C@H]1CCCN1C(=O)[C@H](CO)NC(C)=O)C(=O)N[C@@H](Cc1ccncc1)C(=O)N[C@@H](CC1CCCCC1)C(=O)NC(C)(C)C(=O)N[C@@H](CC(N)=O)C(=O)N[C@@H](CCCCNC(=N)N)C(=O)NC(C)(C)C(=O)N[C@H](C(=O)N[C@@H](CCCNC(=N)N)C(=O)N[C@@H](CCC(N)=O)C(=O)N[C@@H](CCCNC(=N)N)C(=O)N[C@@H](CC1CCCCC1)C(N)=O)[C@@H](C)O) [compound No. 317] | 0.65 | 1.0 | 49 |
| Ac-[D-Pro24, Iva25, Pya(4)26, Cha27,36, Leu(Me)28, Lys30, Aib31]-PYY(23-36) [compound No. 295] | 0.76 | 1.2 | 52 |
| Ac-[D-Pro24, Pya(4)26, Cha27,36, Aib28,31, Ala(4-pip)30]-PYY(23-36) (Ac-S[dP]R[4Pal][Cha][Aib]N[Ala(piperidin-4-yl)][Aib]TRQR[Cha]-NH2; SMILES CC(=O)N[C@@H](CO)C(=O)N1CCC[C@@H]1C(=O)N[C@@H](CCCNC(=N)N)C(=O)N[C@@H](Cc1ccncc1)C(=O)N[C@@H](CC1CCCCC1)C(=O)NC(C)(C)C(=O)N[C@@H](CC(N)=O)C(=O)N[C@@H](CC1CCNCC1)C(=O)NC(C)(C)C(=O)N[C@H](C(=O)N[C@@H](CCCNC(=N)N)C(=O)N[C@@H](CCC(N)=O)C(=O)N[C@@H](CCCNC(=N)N)C(=O)N[C@@H](CC1CCCCC1)C(N)=O)[C@@H](C)O) [compound No. 313] | 0.72 | 0.8 | 23 |
| Ac-[D-Pro24, Pya(4)26, Cha27,36, Aib28,31, Arg(Me)30]-PYY(23-36) (Ac-S[dP]R[4Pal][Cha][Aib]N[Arg(Me)][Aib]TRQR[Cha]-NH2) [compound No. 314] | 1.1 | 1.2 | 21 |
| Ac-[D-Pro24, Pya(4)26, Cha27,36, Aib28, Lys30, D-Iva31]-PYY(23-36) (Ac-S[dP]R[4Pal][Cha][Aib]NK[dIva]TRQR[Cha]-NH2; SMILES CC[C@@](C)(NC(=O)[C@H](CCCCN)NC(=O)[C@H](CC(N)=O)NC(=O)C(C)(C)NC(=O)[C@H](CC1CCCCC1)NC(=O)[C@H](Cc1ccncc1)NC(=O)[C@H](CCCNC(=N)N)NC(=O)[C@H]1CCCN1C(=O)[C@H](CO)NC(C)=O)C(=O)N[C@H](C(=O)N[C@@H](CCCNC(=N)N)C(=O)N[C@@H](CCC(N)=O)C(=O)N[C@@H](CCCNC(=N)N)C(=O)N[C@@H](CC1CCCCC1)C(N)=O)[C@@H](C)O) [compound No. 232] | 0.55 | 1.6 | 34 |
| Ac-[D-Pro24, Pya(4)26, Cha27,36, Iva28, Lys30, Aib31]-PYY(23-36) (Ac-S[dP]R[4Pal][Cha][Iva]NK[Aib]TRQR[Cha]-NH2; SMILES CC[C@](C)(NC(=O)[C@H](CC1CCCCC1)NC(=O)[C@H](Cc1ccncc1)NC(=O)[C@H](CCCNC(=N)N)NC(=O)[C@H]1CCCN1C(=O)[C@H](CO)NC(C)=O)C(=O)N[C@@H](CC(N)=O)C(=O)N[C@@H](CCCCN)C(=O)NC(C)(C)C(=O)N[C@H](C(=O)N[C@@H](CCCNC(=N)N)C(=O)N[C@@H](CCC(N)=O)C(=O)N[C@@H](CCCNC(=N)N)C(=O)N[C@@H](CC1CCCCC1)C(N)=O)[C@@H](C)O) [compound No. 233] | 0.33 | 1.2 | 36 |

Now from value to substance, other results behind:

| RBA IC50 Ratio (human Y2 receptor [1]) | GBA EC50 Ratio (human Y2 receptor [2]) | Substance | food intake suppression rate (%) (male C57EL/6J mice) |
| --- | --- | --- | --- |
| 1.1 | 1.0 | Ac-[D-Pro24, Iva25,28, Pya(4)26, Cha27,36, Lys30, Aib31]-PYY(23-36) (Ac-S[dP][Iva][4Pal][Cha][Iva]NK[Aib]TRQR[Cha]-NH2; SMILES CC[C@](C)(NC(=O)[C@H](CC1CCCCC1)NC(=O)[C@H](Cc1ccncc1)NC(=O)[C@](C)(CC)NC(=O)[C@H]1CCCN1C(=O)[C@H](CO)NC(C)=O)C(=O)N[C@@H](CC(N)=O)C(=O)N[C@@H](CCCCN)C(=O)NC(C)(C)C(=O)N[C@H](C(=O)N[C@@H](CCCNC(=N)N)C(=O)N[C@@H](CCC(N)=O)C(=O)N[C@@H](CCCNC(=N)N)C(=O)N[C@@H](CC1CCCCC1)C(N)=O)[C@@H](C)O) [compound No. 296] | 36 |
| 2.4 | 1.7 | Ac-[D-Pro24, Iva25, Pya(4)26, Cha27,36, Aib28,31, Arg(Me)30]-PYY(23-36) (Ac-S[dP][Iva][4Pal][Cha][Aib]N[Arg(Me)][Aib]TRQR[Cha]-NH2) [compound No. 316] | 29 |
| 2.9 | 2.9 | Ac-[D-Pro24, Iva25, Pya(4)26, Cha27,36, Aib28,31, Lys30]-PYY(23-36) (Ac-S[dP][Iva][4Pal][Cha][Aib]NK[Aib]TRQR[Cha]-NH2; SMILES CC[C@](C)(NC(=O)[C@H]1CCCN1C(=O)[C@H](CO)NC(C)=O)C(=O)N[C@@H](Cc1ccncc1)C(=O)N[C@@H](CC1CCCCC1)C(=O)NC(C)(C)C(=O)N[C@@H](CC(N)=O)C(=O)N[C@@H](CCCCN)C(=O)NC(C)(C)C(=O)N[C@H](C(=O)N[C@@H](CCCNC(=N)N)C(=O)N[C@@H](CCC(N)=O)C(=O)N[C@@H](CCCNC(=N)N)C(=O)N[C@@H](CC1CCCCC1)C(N)=O)[C@@H](C)O) [compound No. 237] | 46 |
| 3.0 | 2.4 | Ac-[D-Pro24, Nle25, Pya(4)26, Cha27,36, Aib28,31, Lys30]-PYY(23-36) (Ac-S[dP][Nle][4Pal][Cha][Aib]NK[Aib]TRQR[Cha]-NH2; SMILES CCCC[C@H](NC(=O)[C@H]1CCCN1C(=O)[C@H](CO)NC(C)=O)C(=O)N[C@@H](Cc1ccncc1)C(=O)N[C@@H](CC1CCCCC1)C(=O)NC(C)(C)C(=O)N[C@@H](CC(N)=O)C(=O)N[C@@H](CCCCN)C(=O)NC(C)(C)C(=O)N[C@H](C(=O)N[C@@H](CCCNC(=N)N)C(=O)N[C@@H](CCC(N)=O)C(=O)N[C@@H](CCCNC(=N)N)C(=O)N[C@@H](CC1CCCCC1)C(N)=O)[C@@H](C)O) [compound No. 224] | 30 |
| 1.8 | 1.3 | Ac-[D-Pro24, Pya(4)26, Cha27,36, Aib28,31, Lys30]-PYY(23-36) [compound No. 138] | 38 |

From US9260500B2, “Peptide and use thereof” (Takeda Pharmaceutical Company Limited, priority 2009, dated 2016)
